The source of these data is US20250090583A1.

Where only a bound is given, the exact number is not on record here.

Assay [1] addresses MART-1 peptide … (ELA) presented by HLA-A2 on peptide-pulsed T2 cells. The assay is described as follows: cell-based or functional assay.
The target of assay [2] is CD3 of the TCR-CD3 complex on human T cells (human) (UniProt P07766). As to the kind of experiment: cell-based or functional assay.

Consider “DMF5 TCR with alpha chain connecting peptide motif mutated to GGGSGSG”, for which the NFAT-GFP in Jurkat cells co-cultured overnight with ELA-pulsed T2 cells, against WT Jkt-DMF5 in assay [1] came out at 50 % reduction. In assay [2], blinatumomab (bispecific antibody) had an NFAT-GFP in Jkt-DMF5FATADALN cells co-cultured with Raji (CD19+) cells and blinatumomab, against WT Jkt-DMF5 below 80 % reduction; an NFAT-GFP in Jkt-DMF5GGGSGSG cells co-cultured with Raji (CD19+) cells and blinatumomab, against WT Jkt-DMF5 below 80 % reduction.
